# According to paper PMC9675693, “Production and characterisation of modularly deuterated UBE2D1–Ub conjugate by small angle neutron and X-ray scattering” (European Biophysics Journal, 2022):
# B1: human Ubiquitin-conjugating enzyme UBE2D1 with point mutations S22R, C85K and D87S, hydrogenated (enzyme)
# chain: not shown
# notes: Ubiquitin-conjugating enzyme UBE2D1, human, with S22R, C85K and D87S; In the SAS experiment (a1) K85 of this chain is joined by an isopeptide bond to G76 of dUb; also called hE2; not shown: His6, N-terminal, cleaved
# Molecular target: the molecule itself
# Assay: SDS-PAGE; purified hE2 on an SDS-PAGE gel; additional band of ~25 kDa
protein,measurement,value
B1,binding result,binds
